Measured values from patent US20260274936A1.

Legend:
[1] = target: human neonatal Fc-receptor (FcRn) (human) (UniProt P55899); assay: FcRn affinity chromatography, anti-VEGF/ANG-2 KiH antibody
[2] = target: human neonatal Fc-receptor (FcRn) (human) (UniProt P55899); assay: FcRn affinity chromatography
[3] = target: human neonatal Fc-receptor (FcRn) (human) (UniProt P55899); assay: FcRn affinity chromatography, anti-HER2 antibody
[4] = target: human neonatal Fc-receptor (FcRn) (human) (UniProt P55899); assay: FcRn affinity chromatography; the table in the text prints 51.8 min for 'none'

retention time on FcRn affinity column [1] [min]	retention time [3] [min]	Substance	other results
48.8		bispecific anti-VEGF/ANG-2 antibody (knobs-into-holes), one chain with I253A (bispecific antibody)	
46.3		bispecific anti-VEGF/ANG-2 antibody (knobs-into-holes), one chain with L251D/L314D/L432D (bispecific antibody)	
		molecule with IgG1 Fc-region L234A/L235A/P329G and Y436A (symmetric) (antibody)	FcRn-affinity column retention time [2]: 41.3 min
48.8		bispecific anti-VEGF/ANG-2 antibody (knobs-into-holes), one chain with H435A (bispecific antibody)	
48.4		bispecific anti-VEGF/ANG-2 antibody (knobs-into-holes), one chain with H310A (bispecific antibody)	
	41.4	anti-HER2 antibody, R255D (symmetrically modified)	
	45.5	anti-HER2 antibody, L309H (symmetrically modified)	
	45.2	anti-HER2 antibody, K288E (symmetrically modified)	
	46.2	anti-HER2 antibody, D98E (symmetrically modified)	
46.7		bispecific anti-VEGF/ANG-2 antibody (knobs-into-holes), one chain with H310A/H433A/Y436A (bispecific antibody)	
51.8		bispecific anti-VEGF/ANG-2 antibody (knobs-into-holes), FcRn affecting mutation: none (bispecific antibody)	RT [4]: 52.8 min
56.2		bispecific anti-VEGF/ANG-2 antibody (knobs-into-holes), one chain with M252Y/S254T/T256E (bispecific antibody)	
	52	anti-HER2 antibody, N434H (symmetrically modified)	
	46.2	anti-HER2 antibody, K290H (symmetrically modified)	
	45.6	anti-HER2 antibody, E258H (symmetrically modified)	
